We go through seven molecules from patent US20180244784A1 (published 2018).

Usually Kd stands for the equilibrium constant for the complex coming apart. One may read the koff as the first-order rate constant of dissociation. Broadly, the kon is the second-order rate constant of association. As usually defined, the EC50 (read off the curve) is the concentration at which the effect is half-maximal. Low values mean a more potent agent, high ones a less potent agent. What is called EC50 is the concentration giving half of the maximal effect.

First the molecules themselves.
B6: human VEGFR-2/Fc (R&D Systems) (Fc fusion)
chain: ASVGLPSVSLDLPRLSIQKDILTIKANTTLQITCRGQRDLDWLWPNNQSGSEQRVEVTECSDGLFCKTLTIPKVIGNDTGAYKCFYRETDLASVIYVYVQDYRSPFIASVSDQHGVVYITENKNKTVVIPCLGSISNLNVSLCARYPEKRFVPDGNRISWDSKKGFTIPSYMISYAGMVFCEAKINDESYQSIMYIVVVVGYRIYDVVLSPSHGIELSVGEKLVLNCTARTELNVGIDFNWEYPSSKHQHKKLVNRDLKTQSGSEMKKFLSTLTIDGVTRSDQGLYTCAASSGLMTKKNSTFVRVHEKPFVAFGSGMESLVEATVGERVRIPAKYLGYPPPEIKWYKNGIPLESNHTIKAGHVLTIMEVSERDTGNYTVILTNPISKEKQSHVVSLVVYVPPQIGEKSLISPVDSYQYGTTQTLTCTVYAIPPPHHIHWYWQLEEECANEPSQAVSVTNPYPCEEWRSVEDFQGGNKIEVNKNQFALIEGKNKTVSTLVIQAANVSALYKCEAVNKVGRGERVISFHVTRGPEITLQPDMQPTEQESVSLWCTADRSTFENLTWYKLGPQPLPIHVGELPTPVCKNLDTLWKLNATMFSNSTNDILIMELKNASLQDQGDYVCLAQDRKTKKRHCVVRQLTVLERVAPTITGNLENQTTSIGESIEVSCTASGNPPPQIMWFKDNETLVEDSGIVLKDGNRNLTIRRVRKEDEGLYTCQACSVLGCAKVEAFFIIEGAQEKTNLE
notes: also called recombinant VEGFR2/Fc; VEGFR/Fc; not shown: Fc part of the bought fusion; It was captured by goat anti-human IgG-Fc in the ELISA

Test [1] addresses T1, mouse VEGFR-2/Fc (R&D Systems) (mouse, UniProt P35918 20-762).
T1 construct: not shown: Fc part of the bought fusion, not described
Put plainly: SPR (Biacore 3000), immobilized mouse VEGFR-2/Fc. On the technique in general: Surface plasmon resonance follows binding to a sensor surface in real time, without labels.

The target of test [2] is B6. Nature of the test: SPR (Biacore 3000), sdAb monomer over amine-coupled human VEGFR-2/Fc, 25 C.
Test [3] addresses T2, human VEGFR2 (KDR) expressed on 293/KDR cells (human, UniProt P35968 20-1356). Put plainly: flow cytometry on 293/KDR cells, S/N against the biotin-isotype control. In general terms: A flow cytometer gives signals particle by particle.
Test [4] has as its target T2, human VEGFR2 (KDR) expressed on 293/KDR …. Put plainly: flow cytometry on 293/KDR cells, detected with PE-streptavidin.
The target in test [5] is B6. Nature of the test: ELISA, VEGFR2/Fc captured on anti-human IgG-Fc, biotinylated antibody detected with streptavidin-alkaline phosphatase.
Test [6] addresses B6. Put plainly: ELISA, VEGFR2/Fc captured by anti-human IgG-Fc, biotin-V21H4 detected with streptavidin-AP; antibody alone, not conjugated.
Test [7] concerns the target B6. Nature of the test: SPR (Biacore 3000), sdAb monomer over amine-coupled human VEGFR-2/Fc, 25 C; constants estimated from transformed data (FIG. 3).
For test [8], the target named is T3, V21H4-DOS47 with 6.6 antibodies per urease (Canavalia ensiformis, UniProt P07374).
T3 construct: subunit of the homohexameric enzyme
Put plainly: ELISA, VEGFR2/Fc captured on anti-human IgG-Fc, conjugate detected with anti-urease. Background: ELISA stands for enzyme-linked immunosorbent assay.

For test [9], the target named is V21H4-DOS47 with 9.4 antibodies per urease (jack bean (Canavalia ensiformis), UniProt P07374 1-840). The description is as above.
The target of test [10] is T4, V21H4-DOS47 with 7.2 antibodies per urease (Canavalia ensiformis, UniProt P07374).
T4 construct: subunit of the homohexameric enzyme
Described as above.

Test [11] concerns the target V21H4-DOS47 with 3.3 antibodies per urease (jack bean (Canavalia ensiformis), UniProt P07374 1-840). The description is as above.
The target of test [12] is V21H4-DOS47 with 2.3 antibodies per urease (jack bean (Canavalia ensiformis), UniProt P07374 1-840). Described as above.
Test [13] has as its target T5, V21H4-DOS47 with 5.1 antibodies per urease (Canavalia ensiformis, UniProt P07374).
T5 construct: subunit of the homohexameric enzyme
Described as above.

Test [14] addresses T6, V21H4-DOS47 with 8.7 antibodies per urease (Canavalia ensiformis, UniProt P07374).
T6 construct: subunit of the homohexameric enzyme
The test is described as above.

Test [15] addresses V21H4-DOS47 with 1.4 antibodies per urease (jack bean (Canavalia ensiformis), UniProt P07374 1-840). The description is as above.
The target of test [16] is T7, AB1m (SEQ ID NO:9)-DOS47 antibody-urease conjugate (jack bean (Canavalia ensiformis), UniProt P07374 1-840).
T7 construct: also called AB1-DOS47
Put plainly: ELISA, urease conjugates on VEGFR2/Fc.

Test [17] concerns the target T8, AB4 (SEQ ID NO:27)-DOS47 antibody-urease conjugate (jack bean (Canavalia ensiformis), UniProt P07374 1-840).
T8 construct: also called AB4-DOS47
Put plainly: ELISA, urease conjugates on VEGFR2/Fc.

The target of test [18] is T9, AB3m (SEQ ID NO:23)-DOS47 antibody-urease conjugate (jack bean (Canavalia ensiformis), UniProt P07374 1-840).
T9 construct: also called AB3-DOS47
Nature of the test: ELISA, urease conjugates on VEGFR2/Fc.

In test [19] the target is T10, AB2 (SEQ ID NO:13)-DOS47 antibody-urease conjugate (jack bean (Canavalia ensiformis), UniProt P07374 1-840).
T10 construct: also called AB2-DOS47
Nature of the test: ELISA, urease conjugates on VEGFR2/Fc.

The target of test [20] is V21H1-DOS47 (V21H1, SEQ ID NO:3, conjugated to urease through SM(PEG)2) (jack bean (Canavalia ensiformis), UniProt P07374 1-840). Put plainly: ELISA, VEGFR2/Fc captured on anti-human IgG-Fc, conjugate detected with anti-urease.
Test [21] addresses T11, V21H4-DOS47 (V21H4, SEQ ID NO:6, conjugated to urease through BM(PEG)2) (jack bean (Canavalia ensiformis), UniProt P07374 1-840).
T11 construct: also called V21-DOS47
The test is described as above.

Test [22] has as its target T7, AB1m (SEQ ID NO:9)-DOS47 …. Nature of the test: ELISA, VEGFR3/Fc captured by anti-human IgG-Fc, conjugate detected with anti-urease.
In test [23] the target is T8, AB4 (SEQ ID NO:27)-DOS47 …. The test is described as above.
The target of test [24] is T9, AB3m (SEQ ID NO:23)-DOS47 …. Described as above.
Test [25] addresses T10, AB2 (SEQ ID NO:13)-DOS47 …. Described as above.

T1 sequence (P35918 20-762 limits assumed): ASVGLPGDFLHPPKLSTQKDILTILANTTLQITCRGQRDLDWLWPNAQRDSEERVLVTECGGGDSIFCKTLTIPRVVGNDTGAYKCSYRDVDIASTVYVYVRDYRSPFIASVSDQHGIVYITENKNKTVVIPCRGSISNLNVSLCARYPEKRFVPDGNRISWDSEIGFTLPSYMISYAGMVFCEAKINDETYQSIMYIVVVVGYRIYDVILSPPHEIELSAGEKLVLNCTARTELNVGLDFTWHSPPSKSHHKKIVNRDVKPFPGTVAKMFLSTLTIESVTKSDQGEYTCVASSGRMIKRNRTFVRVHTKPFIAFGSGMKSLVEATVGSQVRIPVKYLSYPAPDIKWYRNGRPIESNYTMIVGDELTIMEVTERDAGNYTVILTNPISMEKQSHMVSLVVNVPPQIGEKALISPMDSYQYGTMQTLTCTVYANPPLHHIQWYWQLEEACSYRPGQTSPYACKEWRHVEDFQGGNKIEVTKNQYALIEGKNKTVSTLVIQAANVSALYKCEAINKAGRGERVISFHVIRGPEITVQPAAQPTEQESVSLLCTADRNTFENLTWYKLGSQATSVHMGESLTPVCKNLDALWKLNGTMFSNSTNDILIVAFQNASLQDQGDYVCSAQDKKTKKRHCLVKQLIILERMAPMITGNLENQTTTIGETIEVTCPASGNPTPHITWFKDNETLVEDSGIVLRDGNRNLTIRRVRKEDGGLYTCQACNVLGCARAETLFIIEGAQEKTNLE
T7 sequence (VHH, as listed by the source limits assumed, chain 1 of 2): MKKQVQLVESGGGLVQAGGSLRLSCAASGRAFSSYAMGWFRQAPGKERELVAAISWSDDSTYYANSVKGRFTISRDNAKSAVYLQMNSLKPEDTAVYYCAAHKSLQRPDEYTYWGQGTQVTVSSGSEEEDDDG
T7 sequence (P07374 whole entry, chain 2 of 2): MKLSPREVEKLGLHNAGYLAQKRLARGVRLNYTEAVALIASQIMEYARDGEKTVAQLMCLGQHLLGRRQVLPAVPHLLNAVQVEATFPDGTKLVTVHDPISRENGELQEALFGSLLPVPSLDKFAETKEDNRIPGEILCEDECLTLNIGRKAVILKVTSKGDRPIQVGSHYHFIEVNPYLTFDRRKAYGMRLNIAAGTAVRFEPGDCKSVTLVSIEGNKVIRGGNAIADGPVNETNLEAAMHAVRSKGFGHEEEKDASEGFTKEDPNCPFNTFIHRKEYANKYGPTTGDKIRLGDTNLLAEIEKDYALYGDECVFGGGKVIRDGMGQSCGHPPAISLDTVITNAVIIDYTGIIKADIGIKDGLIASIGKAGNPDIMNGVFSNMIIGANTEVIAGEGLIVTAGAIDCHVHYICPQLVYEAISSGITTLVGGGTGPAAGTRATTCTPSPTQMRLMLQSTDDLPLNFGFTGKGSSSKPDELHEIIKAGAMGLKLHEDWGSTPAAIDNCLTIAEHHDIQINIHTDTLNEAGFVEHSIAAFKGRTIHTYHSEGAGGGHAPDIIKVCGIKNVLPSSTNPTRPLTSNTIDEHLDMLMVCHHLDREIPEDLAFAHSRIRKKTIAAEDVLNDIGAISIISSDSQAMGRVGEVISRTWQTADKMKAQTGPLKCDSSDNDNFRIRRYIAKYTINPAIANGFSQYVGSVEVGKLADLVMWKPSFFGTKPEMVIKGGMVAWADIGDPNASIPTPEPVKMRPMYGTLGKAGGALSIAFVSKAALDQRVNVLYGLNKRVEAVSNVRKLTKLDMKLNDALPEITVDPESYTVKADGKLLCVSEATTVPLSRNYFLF
T8 sequence (VHH, as listed by the source limits assumed, chain 1 of 2): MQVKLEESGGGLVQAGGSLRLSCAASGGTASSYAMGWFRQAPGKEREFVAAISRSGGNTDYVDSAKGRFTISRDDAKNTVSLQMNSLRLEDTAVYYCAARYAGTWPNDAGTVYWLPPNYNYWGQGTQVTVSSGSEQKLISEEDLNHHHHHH
T8 sequence (P07374 whole entry, chain 2 of 2): as the sequence (P07374 whole entry, chain 2 of 2) above
T9 sequence (VH, as listed by the source limits assumed, chain 1 of 2): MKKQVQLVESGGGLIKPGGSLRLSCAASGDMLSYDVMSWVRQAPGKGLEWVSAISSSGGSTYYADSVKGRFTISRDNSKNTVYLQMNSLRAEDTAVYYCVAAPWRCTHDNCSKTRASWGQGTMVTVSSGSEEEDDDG
T9 sequence (P07374 whole entry, chain 2 of 2): as the sequence (P07374 whole entry, chain 2 of 2) above
T10 sequence (P07374 whole entry): as the sequence (P07374 whole entry, chain 2 of 2) above

B1: AB4 with linker 2 (SEQ ID NO:27) (VHH)
VHH: QVKLEESGGGLVQAGGSLRLSCAASGGTASSYAMGWFRQAPGKEREFVAAISRSGGNTDYVDSAKGRFTISRDDAKNTVSLQMNSLRLEDTAVYYCAARYAGTWPNDAGTVYWLPPNYNYWGQGTQVTVSS
notes: also called VR2-38; V38 with c-Myc/His6 tail
On to B1, for which the binding result in test [1] is given as “no binding (tested: 150-200 nM)”.

B2: AB2 with linker 2 (SEQ ID NO:13) (other)
VH: MQVQLVESGGGLIKPGGSLRLSCAASGFRFSAESMTWVRQAPGKGLEWVSAISSSGGSTYYADSVKGRFTISRDNSKNTVYLQMNSLRAEDTAVYYCVRSPKGCTHASCSWNSGSWGQGTLVTVSSGSEQKLISEEDLNHHHHH
notes: also called VR2-801-18; V18 with c-Myc/His5 tail
Turning to B2, the binding result in test [1] is reported as “no binding (tested: 150-200 nM)”. Moreover, in test [2], the Kd came to 500 nM, the koff was 0.02 s⁻¹ and the kon was found to be 46000 M⁻¹ s⁻¹.

B3: biotin-V21H4 (biotinylated AB1 antibody, SEQ ID NO:6) (VHH)
VHH: QVQLVESGGGLVQAGGSLRLSCAASGRAFSSYAMGWFRQAPGKERELVAAISWSDDSTYYANSVKGRFTISRDNAKSAVYLQMNSLKPEDTAVYYCAAHKSLQRPDEYTYWGQGTQVTVSS
notes: also called V21H4 antibody alone; AB1C
For the molecule B3, the “EC50 (read off the curve)” value in test [3] and in [5] was around 2 nM in each case. Besides, the values for the EC50 in [4] and in test [6] were 1.6 nM and 1.8 nM, respectively.

B4: AB1 with linker 2 (SEQ ID NO:7) (VHH)
VHH: QVQLVESGGGLVQAGGSLRLSCAASGRAFSSYAMGWFRQAPGKERELVAAISWSDDSTYYANSVKGRFTISRDNAKSAVYLQMNSLKPEDTAVYYCAAHKSLQRPDEYTYWGQGTQVTVSS
notes: also called VR2-21; V21 with c-Myc/His6 tail
In the case of B4, the binding result in test [1] is “no binding (tested: 150-200 nM)”. Further, in test [7], the Kd is around 80 nM, the off-rate constant (koff) is below 0.01 s⁻¹ and the on-rate (kon) is around 60000 M⁻¹ s⁻¹.

B5: AB3 with linker 2 (SEQ ID NO:21) (other)
VH: MQVQLVESGGGLIKPGGSLRLSCAASGDMLSYDVMSWVRQAPGKGLEWVSAISSSGGSTYYADSVKGRFTISRDNSKNTVYLQMNSLRAEDTAVYYCVAAPWRCTHDNCSKTRASWGQGTMVTVSSGSEQKLISEEDLNHHHHH
notes: also called VR2-801-45; V45 with c-Myc/His5 tail
Take B5: the binding result in test [1] is reported as “no binding (tested: 150-200 nM)”. Also, in [2], the Kd came to 900 nM, the koff was determined as 0.045 s⁻¹ and the kon was 53000 M⁻¹ s⁻¹.

For the molecule B6, the binding result in [8], in test [9], in test [10], in test [11], in test [12] and in test [13] was “binds” in each case. Moreover, the binding result in [14], in test [15], in test [16], in test [17], in test [18] and in [19] was “binds” each time. The binding result in [20] and in test [21] was “binds” each time.

B7: VEGFR3/Fc (R&D Systems) (Fc fusion)
chain: YSMTPPTLNITEESHVIDTGDSLSISCRGQHPLEWAWPGAQEAPATGDKDSEDTGVVRDCEGTDARPYCKVLLLHEVHANDTGSYVCYYKYIKARIEGTTAASSYVFVRDFEQPFINKPDTLLVNRKDAMWVPCLVSIPGLNVTLRSQSSVLWPDGQEVVWDDRRGMLVSTPLLHDALYLQCETTWGDQDFLSNPFLVHITGNELYDIQLLPRKSLELLVGEKLVLNCTVWAEFNSGVTFDWDYPGKQAERGKWVPERRSQQTHTELSSILTIHNVSQHDLGSYVCKANNGIQRFRESTEVIVHENPFISVEWLKGPILEATAGDELVKLPVKLAAYPPPEFQWYKDGKALSGRHSPHALVLKEVTEASTGTYTLALWNSAAGLRRNISLELVVNVPPQIHEKEASSPSIYSRHSRQALTCTAYGVPLPLSIQWHWRPWTPCKMFAQRSLRRRQQQDLMPQCRDWRAVTTQDAVNPIESLDTWTEFVEGKNKTVSKLVIQNANVSAMYKCVVSNKVGQDERLIYFYVTTIPDGFTIESKPSEELLEGQPVLLSCQADSYKYEHLRWYRLNLSTLHDAHGNPLLLDCKNVHLFATPLAASLEEVAPGARHATLSLSIPRVAPEHEGHYVCEVQDRRSHDKHCHKKYLSVQALEAPRLTQNLTDLLVNVSDSLEMQCLVAGAHAPSIVWYKDERLLEEKSGVDLADSNQKLSIQRVREEDAGRYLCSVCNAKGCVNSSASVAVEGSEDKGSMEI
notes: not shown: Fc part, captured by goat anti-human IgG-Fc; not described further
As to B7, the binding result in [22], in [23], in [24] and in test [25] was “no binding” throughout.
